# Measurements published in the supplement of paper PMC9112550, “Optimization of the antimicrobial peptide Bac7 by deep mutational scanning” (BMC Biology, 2022).
# Test system: Escherichia coli TOP10
# Assay: shrunken log2 fold change of peptide-encoding DNA abundance (4.5 h post-induction vs induction); higher = less antimicrobial activity (less host growth inhibition)
# Settings: time post-induction: 4.5 h; library: site-saturation at positions 5, 18, 19, 20
# 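Note: peptides expressed intracellularly from a pBAD plasmid library in pooled LB shake-flask culture, induced with 0.3% L-arabinose, DNA abundance read by NGS, three biological replicates, DESeq2 with apeglm shrinkage.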
row,Sequence,shrunken log2 fold change
1,RRIRARPPRLPRPRPRPMDAPRP,0.293
2,RRIRDRPPRLPRPRPRPRQRPRP,0.708
3,RRIRMRPPRLPRPRPRPFVHPRP,-0.178
4,RRIRMRPPRLPRPRPRPWKMPRP,0.0322
5,RRIRLRPPRLPRPRPRPAQTPRP,-0.00496
6,RRIRFRPPRLPRPRPRPTAEPRP,0.593
7,RRIRTRPPRLPRPRPRPTFMPRP,-0.191
8,RRIRDRPPRLPRPRPRPYLDPRP,-0.0026
9,RRIRIRPPRLPRPRPRPMFKPRP,-0.286
10,RRIRMRPPRLPRPRPRPIGLPRP,-0.062
11,RRIRYRPPRLPRPRPRPRLTPRP,-0.0803
12,RRIRVRPPRLPRPRPRPIEGPRP,-0.0117
13,RRIRVRPPRLPRPRPRPFGLPRP,-0.0857
14,RRIRFRPPRLPRPRPRPVYNPRP,-1.27
15,RRIRTRPPRLPRPRPRPECKPRP,0.165
16,RRIRDRPPRLPRPRPRPFNRPRP,0.00902
17,RRIRKRPPRLPRPRPRPLMHPRP,0.0704
18,RRIRARPPRLPRPRPRPHTEPRP,-0.0331
19,RRIRFRPPRLPRPRPRPVMIPRP,0.122
20,RRIRCRPPRLPRPRPRPHQLPRP,-0.465
21,RRIRNRPPRLPRPRPRPMPMPRP,0.0119
22,RRIRLRPPRLPRPRPRPWGCPRP,0.0644
23,RRIRDRPPRLPRPRPRPWMAPRP,-0.499
24,RRIRHRPPRLPRPRPRPADYPRP,-0.291
25,RRIRGRPPRLPRPRPRPMWQPRP,0.418

row,Sequence,shrunken log2 fold change
1,RRIRCRPPRLPRPRPRPGMRPRP,0.532
2,RRIRFRPPRLPRPRPRPSGEPRP,-0.135
3,RRIRVRPPRLPRPRPRPCISPRP,0.00333
4,RRIRCRPPRLPRPRPRPKAMPRP,0.234
5,RRIRLRPPRLPRPRPRPYWCPRP,-0.00992
6,RRIRKRPPRLPRPRPRPWLHPRP,0.24
7,RRIRIRPPRLPRPRPRPHFLPRP,-1.42
8,RRIRSRPPRLPRPRPRPWYMPRP,-0.262
9,RRIRWRPPRLPRPRPRPVYWPRP,0.14
10,RRIRLRPPRLPRPRPRPEQFPRP,-0.141
11,RRIRRRPPRLPRPRPRPTNDPRP,0.263
12,RRIRQRPPRLPRPRPRPGRLPRP,0.0206
13,RRIRYRPPRLPRPRPRPEPQPRP,-0.777
14,RRIRPRPPRLPRPRPRPRQVPRP,0.474
15,RRIRQRPPRLPRPRPRPWEPPRP,0.106
16,RRIRTRPPRLPRPRPRPNREPRP,0.115
17,RRIRFRPPRLPRPRPRPASTPRP,-0.0365
18,RRIRDRPPRLPRPRPRPEFTPRP,0.174
19,RRIRCRPPRLPRPRPRPYNKPRP,-1.02
20,RRIRARPPRLPRPRPRPDTMPRP,0.0783
21,RRIRHRPPRLPRPRPRPWDLPRP,-0.245
22,RRIRTRPPRLPRPRPRPNDFPRP,-0.205
23,RRIRKRPPRLPRPRPRPDFKPRP,-0.0323
24,RRIRFRPPRLPRPRPRPGIRPRP,-0.136
25,RRIRVRPPRLPRPRPRPMECPRP,-0.00192

row,Sequence,shrunken log2 fold change
1,RRIRLRPPRLPRPRPRPSDWPRP,-0.106
2,RRIRARPPRLPRPRPRPGIMPRP,0.113
3,RRIRFRPPRLPRPRPRPAPHPRP,0.442
4,RRIRCRPPRLPRPRPRPCRFPRP,-0.178
5,RRIRYRPPRLPRPRPRPLVIPRP,-0.782
6,RRIRPRPPRLPRPRPRPPNCPRP,0.215
7,RRIRRRPPRLPRPRPRPYRQPRP,-0.13
8,RRIRWRPPRLPRPRPRPSWMPRP,-0.0675
9,RRIRDRPPRLPRPRPRPDRMPRP,-0.00945
10,RRIRYRPPRLPRPRPRPGGTPRP,-0.0623
11,RRIRARPPRLPRPRPRPAGHPRP,0.398
12,RRIRGRPPRLPRPRPRPCKAPRP,0.377
13,RRIRQRPPRLPRPRPRPPADPRP,0.362
14,RRIRIRPPRLPRPRPRPYWDPRP,-0.143
15,RRIRDRPPRLPRPRPRPFHHPRP,-0.886
16,RRIRWRPPRLPRPRPRPEWIPRP,0.475
17,RRIRRRPPRLPRPRPRPRGLPRP,0.396
18,RRIRLRPPRLPRPRPRPYPMPRP,0.00832
19,RRIRYRPPRLPRPRPRPLVFPRP,-0.439
20,RRIRKRPPRLPRPRPRPWIPPRP,0.0372
21,RRIRWRPPRLPRPRPRPGACPRP,0.188
22,RRIRYRPPRLPRPRPRPADNPRP,-0.938
23,RRIRWRPPRLPRPRPRPWHFPRP,-0.265
24,RRIRPRPPRLPRPRPRPNYLPRP,-0.0996
25,RRIRMRPPRLPRPRPRPAIIPRP,0.0113

row,Sequence,shrunken log2 fold change
1,RRIRVRPPRLPRPRPRPSWPPRP,0.493
2,RRIRGRPPRLPRPRPRPWPMPRP,0.31
3,RRIRFRPPRLPRPRPRPQKHPRP,-0.327
4,RRIRHRPPRLPRPRPRPKNRPRP,-0.227
5,RRIRYRPPRLPRPRPRPPPNPRP,0.873
6,RRIRLRPPRLPRPRPRPFKRPRP,-0.09
7,RRIRTRPPRLPRPRPRPWLYPRP,-0.161
8,RRIRDRPPRLPRPRPRPTWNPRP,-0.07
9,RRIRRRPPRLPRPRPRPHGGPRP,0.0449
10,RRIRVRPPRLPRPRPRPNDFPRP,-0.0485
11,RRIRWRPPRLPRPRPRPWMDPRP,-0.0803
12,RRIRSRPPRLPRPRPRPFWTPRP,0.131
13,RRIRMRPPRLPRPRPRPSNQPRP,-0.0365
14,RRIRWRPPRLPRPRPRPDSFPRP,0.00192
15,RRIRPRPPRLPRPRPRPLMIPRP,-0.152
16,RRIRVRPPRLPRPRPRPFVKPRP,-0.199
17,RRIRTRPPRLPRPRPRPRHQPRP,-0.154
18,RRIRYRPPRLPRPRPRPKITPRP,-0.57
19,RRIRTRPPRLPRPRPRPGRQPRP,0.0723
20,RRIRLRPPRLPRPRPRPHWNPRP,-0.315
21,RRIRKRPPRLPRPRPRPDKCPRP,-0.142
22,RRIRERPPRLPRPRPRPNRSPRP,-0.0779
23,RRIRWRPPRLPRPRPRPVNKPRP,-0.0372
24,RRIRRRPPRLPRPRPRPPGRPRP,1.52
25,RRIRTRPPRLPRPRPRPLTYPRP,0.959

row,Sequence,shrunken log2 fold change
1,RRIRDRPPRLPRPRPRPANCPRP,-0.00155
2,RRIRPRPPRLPRPRPRPIWAPRP,0.384
3,RRIRSRPPRLPRPRPRPWLAPRP,0.166
4,RRIRIRPPRLPRPRPRPKGRPRP,0.182
5,RRIRPRPPRLPRPRPRPPVCPRP,0.409
6,RRIRKRPPRLPRPRPRPKASPRP,0.0517
7,RRIRIRPPRLPRPRPRPHNVPRP,-0.414
8,RRIRERPPRLPRPRPRPRCKPRP,-0.0657
9,RRIRIRPPRLPRPRPRPKVTPRP,-0.386
10,RRIRHRPPRLPRPRPRPQNWPRP,0.0558
11,RRIRRRPPRLPRPRPRPAMWPRP,0.451
12,RRIRARPPRLPRPRPRPLEHPRP,0.0565
13,RRIRLRPPRLPRPRPRPMKAPRP,-0.0274
14,RRIRTRPPRLPRPRPRPQTEPRP,-0.0173
15,RRIRIRPPRLPRPRPRPQHTPRP,-1
16,RRIRSRPPRLPRPRPRPPYCPRP,-0.031
17,RRIRSRPPRLPRPRPRPEALPRP,-0.0643
18,RRIRIRPPRLPRPRPRPNEEPRP,-0.179
19,RRIRSRPPRLPRPRPRPMMTPRP,-0.0968
20,RRIRQRPPRLPRPRPRPCCPPRP,-0.192
21,RRIRKRPPRLPRPRPRPMICPRP,0.0303
22,RRIRYRPPRLPRPRPRPTAHPRP,-0.466
23,RRIRVRPPRLPRPRPRPIVMPRP,-0.107
24,RRIRFRPPRLPRPRPRPHCEPRP,-0.0995
25,RRIRSRPPRLPRPRPRPTSRPRP,-0.0504
